Source: IntAct's records for PubMed 21984795

B1: Biopolymer transport protein ExbD (Escherichia coli (strain K12)), P0ABV2 (parent)
chain: MAMHLNENLDDNGEMHDINVTPFIDVMLVLLIIFMVAAPLATVDVKVNLPASTSTPQPRPEKPVYLSVKADNSMFIGNDPVTDETMITALNALTEGKKDTTIFFRADKTVDYETLMKVMDTLHQAGYLKIGLVGEETAKAK
partner: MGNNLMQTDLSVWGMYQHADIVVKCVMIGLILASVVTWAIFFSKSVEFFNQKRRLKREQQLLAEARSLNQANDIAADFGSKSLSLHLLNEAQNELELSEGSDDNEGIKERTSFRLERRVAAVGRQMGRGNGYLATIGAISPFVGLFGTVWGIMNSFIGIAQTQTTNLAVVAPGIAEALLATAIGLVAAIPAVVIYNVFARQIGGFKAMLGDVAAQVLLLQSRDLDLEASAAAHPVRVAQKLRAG
B2: Biopolymer transport protein ExbD (Escherichia coli (strain K12)), P0ABV2 (parent)
chain: B1 chain

Variants of: B1
Details: with exbb_ecoli exbB

| Variant | effect of a mutation on the interaction |
| --- | --- |
| MAMHLNENLDDNGEMHDINVTPFIDVMLVLLIIFMVAAPLATVDVKVNLPASTSTPQPRPEKPVYLSVKADNSMFIGNDPVTDETMITALNALTEGKKDTTIFFRADKTVDCETLMKVMDTLHQAGYLKIGLVGEETAKAK [Y112C] | increasing interaction |
| MAMHLNENLDDNGEMHDINVTPFIDVMLVLLIIFMVAAPLATVDVKVNLPASTSTPQPRPEKPVYLSVKADNSMFIGNDPVTDETMITALNALTEGKKDTTIFFRADKTVDYCTLMKVMDTLHQAGYLKIGLVGEETAKAK [E113C] | increasing interaction |
| MAMHLNENLDDNGEMHDINVTPFINVMLVLLIIFMVAAPLATVDVKVNLPASTSTPQPRPEKPVYLSVKADNSMFIGNDPVTDETMITALNALTEGKKDTTIFFRADKTVDYETLMKVMDTLHQAGYLKIGLVGEETAKAK [D25N] | disrupting interaction |
| MAMHLNENLDDNGEMHDINVTPFIDVMLVLLIIFMVAAPLATVDVKVNLPASTSTPQPRPEKPVYLSVKADNSMFIGNDPVTDETMITALNALTEGKKDTTIFFRADKTVDYETLCKVMDTLHQAGYLKIGLVGEETAKAK [M116C] | increasing interaction |
| MAMHLNENLDDNGEMHDINVTPFIDVMLVLLIIFMVAAPLATVDVKVNLPASTSTPQPRPEKPVYLSVKADNSMFIGNDPVTDETMITALNALTEGKKDTTIFFRADCTVDYETLMKVMDTLHQAGYLKIGLVGEETAKAK [K108C] | increasing interaction |

Variants of: B2
Details: with tonb_ecoli tonB

| Variant | effect of a mutation on the interaction |
| --- | --- |
| MAMHLNENLDDNGEMHDINVTPFIDVMLVLLIIFMVAAPLATVDVKVNLPASTSTPQPRPEKPVYLSVKADNSMFIGNDPVTDETMITALNCLTEGKKDTTIFFRADKTVDYETLMKVMDTLHQAGYLKIGLVGEETAKAK [A92C] | increasing interaction |
| MAMHLNENLDDNGEMHDINVTPFIDVMLVLLIIFMVAAPLATVDVKVNLPASTSTPQPRPEKPVYLSVKADNSMFIGNDPVTDETMITALNALTEGKKDTTIFFRADKTCDYETLMKVMDTLHQAGYLKIGLVGEETAKAK [V110C] | increasing interaction |
| MAMHLNENLDDNGEMHDINVTPFIDVMLVLLIIFMVAAPLATVDVKVNLPASTSTPQPRPEKPVYLSVKADNSMFIGNDPVTDETMITALNALTECKKDTTIFFRADKTVDYETLMKVMDTLHQAGYLKIGLVGEETAKAK [G96C] | increasing interaction |
| MAMHLNENLDDNGEMHDINVTPFIDVMLVLLIIFMVAAPLATVDVKVNLPASTSTPQPRPEKPVYLSVKADNSMFIGNDPVTDETMITALNALTEGKKDTTIFFRADKTVDYETLCKVMDTLHQAGYLKIGLVGEETAKAK [M116C] | increasing interaction |
| MAMHLNENLDDNGEMHDINVTPFIDVMLVLLIIFMVAAPLATVDVKVNLPASTSTPQPRPEKPVYLSVKADNSMFIGNDPVTDETMITALNALTEGKKDTTIFFRACKTVDYETLMKVMDTLHQAGYLKIGLVGEETAKAK [D107C] | increasing interaction |
| MAMHLNENLDDNGEMHDINVTPFIDVMLVLLIIFMVAAPLATVDVKVNLPASTSTPQPRPEKPVYLSVKADNSMFIGNDPVTDETMITALNALTEGKKDTTIFFRADKTVDYETLMKVMCTLHQAGYLKIGLVGEETAKAK [D120C] | increasing interaction |
| MAMHLNENLDDNGEMHDINVTPFIDVMLVLLIIFMVAAPLATVDVKVNLPASTSTPQPRPEKPVYLSVKADNSMFIGNDPVTDETMITALNALTEGKKDTTIFFRADKTVDCETLMKVMDTLHQAGYLKIGLVGEETAKAK [Y112C] | increasing interaction |
| MAMHLNENLDDNGEMHDINVTPFIDVMLVLLIIFMVAAPLATVDVKVNLPASTSTPQPRPEKPVYLSVKADNSMFIGNDPVTDETMITALNALTEGKKDTTCFFRADKTVDYETLMKVMDTLHQAGYLKIGLVGEETAKAK [I102C] | increasing interaction |
| MAMHLNENLDDNGEMHDINVTPFIDVMLVLLIIFMVAAPLATVDVKVNLPASTSTPQPRPEKPVYLSVKADNSMFIGNDPVTDETMITALNALTEGKKDTTIFFRADKTVCYETLMKVMDTLHQAGYLKIGLVGEETAKAK [D111C] | increasing interaction |
| MAMHLNENLDDNGEMHDINVTPFIDVMLVLLIIFMVAAPLATVDVKVNLPASTSTPQPRPEKPVYLSVKADNSMFIGNDPVTDETMITALNALTEGKKDTTIFFRADKCVDYETLMKVMDTLHQAGYLKIGLVGEETAKAK [T109C] | increasing interaction |
| MAMHLNENLDDNGEMHDINVTPFIDVMLVLLIIFMVAAPLATVDVKVNLPASTSTPQPRPEKPVYLSVKADNSMFIGNDPVTDETMITALNALTEGKKDTTIFFRADCTVDYETLMKVMDTLHQAGYLKIGLVGEETAKAK [K108C] | increasing interaction |
| MAMHLNENLDDNGEMHDINVTPFIDVMLVLLIIFMVAAPLATVDVKVNLPASTSTPQPRPEKPVYLSVKADNSMFIGNDPVTDETMITALNALTEGKKDTTIFFRADKTVDYCTLMKVMDTLHQAGYLKIGLVGEETAKAK [E113C] | increasing interaction |
